The results in this text go back to a protein production outcome set (Wang et al. 2014).

The series in a line: label from the status in PepcDB records.
Consider “MRLNKLFILYSLFGILMASCIKDEAPNAEADITGISFEEDVLASARFNLNPSYNDNLQAYPILVKVKEGTPLNKLSPLFELTPGATISPESGSEHDFSDGKRVKYTVTSENKAWQRVYSIGVREQSVSDIPNEFHFEDIRLINGINPKYKYQEFYEEQDGLELTWASGNEGFNWAASSSATENYPTSQYDNGKNGKCAKLETRLTGSLGAMVGMPIAAGNLFIGEFDMTNALTSPLKATHFGTPFCYKPSRLKGWYKYKAGERFYENGGYTDRKDVMNIYAIFYEGESYNEAGEVTEVILDGNLPNQNYEHPSMVALALISNPHETDDWEAFDIPFDYQRYGKEIDETKLAKGKYKLSIIFASSKNGATFEGAPGSTLLVDDVELIFE”, for which the protein production entry is listed as “failed”. The same measure for “QNVLDLHGLHVDEALEHLMRVLEKKTEEFKQNGGKPYLSVITGRGNHSQGGVARIKPAVIKYLISHSFRFSEIKPGCLKVMLK”: “not failed”; for “MPIIIDKDLPARKVLQEENIFVMTKERAETQDIRALKIAILNLMPTKQETEAQLLRLIGNTPLQLDVHLLHMESHLSRNVAQEHLTSFYKTFRDIENEKFDGLIITGAPVETLSFEEVDYWEELKRIMEYSKTNVTSTLHICWGAQAGLYHHYGVQKYPLKEKMFGVFEHEVREQHVKLLQGFDELFFAPHSRHTEVRESDIREVKELTLLANSEEAGVHLVIGQEGRQVFALGHSEYSCDTLKQEYERDRDKGLNIDVPKNYFKHDNPNEKPLVRWRSHGNLLFSNWLNYYVYQETPYVL”: “not failed”; for “AQIPQQIKGVICINAGGGIYLKEAFEQFRVAGQRFLQVRPRWLSQVPLIDLLFTRASVSRPLDRQWARQRVIDFVVADPEAALGALLDSTTEDEVNRLPKLVSQLKQPVYFLAGTDDKVMEPKYVRHLASFHPLFQYCGDNVIEIPDCGHLAMLEQPDAVASHIKSLV”: “failed”. For “MVRRLTNGRWGLTLLILALMYIIALGLMARPAAADPGITLVLNGSRVNPSVPAYTDSNGRTMVPVRFVMEHMGGRVEWLDAEQGIVVSRGATTLKMWIGKRQAQVNGQAIDLDTVPVLQDGTSMVPVRFVAQAFGGKVEWDDASRTVSIWLGTASPAGQVRITGSYVNVRTGPGTSYGVIDVLPRDTLVQLLATGDGWYQVQLPDGRQGWVSASYSEVLQGNNQPQDTNPPGNNQPGNGQSPGNNPSPGNNQPGNEEPPSGQPLGTAIIGNKPVAILAGPNPVEKQVGMAPAGSRLPIWQQQGDWWLVELDNGLRGWLASSLATFSPEKPGQDNGGSETGNGGTAPGEGNQGVGNSDSNSLKITGVTVNPGPDWIEVTVQGTRPFTFKSSRWADHLIFDIPGATLAVAPGQDKVEVNRQPLARVRLGQYDANTVRVVCDLNGAANFTTTTAGSTITIRLQKPSVRGAKIVIDPGHGTDPQGSDPGAIGPSGVQEKDVNLAISRKLAELLRAAGATVYMTRDGETTPYTLSGRAYYANEVGADLFICIHSNASLSPSASGTSTYFYAPPGTALGEQRDARQRLATLIQRDLVAAIGRRDLGVKEANFAVLRNTKMPSVLVETAFISNPTEEQLLASPDFQALVAQGIFNGISDYLSGQ” the value was “failed”; for “MNASLTPDQVSKKLKQFFSDHLPISQFMGLEIESYDGDTLILTAPLEPNINDKQTAFGGSLYNAAVMACWGMVYLKTQEENIACNQVVTEGNMKYIAPVYGRIRAICHAPDEEELANFFDHFERKGKARISLEAAIYNDACVMKIEPETKPSVKFNGQYAILKNQ”, “not failed”.

In the case of “MLGNKVVSSPLVAALVALAVRLLAHNFSHHIHLPYHFGITTSKTGSEIWKEAVFWKQQFGVVPAFLTTVGPWFMEYIPPASSDAYVIFLCLCDALTVYIVSRWPSAKPQLTYALFVLNPIMALLPMLESLAPLEHVLLAVILECCRKRRIHPWLIFAARLLAPLLGFHFIAIIVALWYPVGTPCPKIALVGVALCTACIGGCGMLYLRWWGEHVERTSLYSPPDNGVMWYVRLLIMAAFHRSMEVGQIELPAVLTLIFSTGVPCEKEAAAETMKDGGAIPGDRRLLVTLLAICFSKLFCEHVILADYMITVFFLYSLLEVKGRGGFKSMLDRVRGLNIFLPICTLLLGVPLQYAFYTGWVMWDMANPNWVFFPQVAFVTGGGLFLLAFVNSLVDAMKEECVAGITKEKQA”, the protein production entry is listed as “failed”.

With “MDNRKRLAYAIIQFLHGQLRHGGLSCDAQESLEVAIQCLETAFGVTLEDSDLALPQTLPEIFEAATSSKQEMPQDPRAPDRTPPSEEDSAEAERLKTEGNEQMKLENFEAAVHLYGKAIELNPANAVYFCNRAAAYSKLGNYVGAVQDCERAIGIDPGYSKAYGRMGLALSSLNKHAEAVAYYKKALELDPDNDTYKSNLKIAELKLREAPSPTGGVGSLDIAGLLNNPHFITMASSLMNSPQLQQLMSGMISGGHNPLGTPGSSPQQSDLASLIQAGQQFAQQMQQQNPEFVEQIRSQVVRSRTPSASHEEQQE”, the protein production result is “failed”. Regarding “MDEMRPPPRSRTIYLLPNLFTTAGLFSGFYAIIAAANGQFVQAAMAVFVAAVMDGLDGRVARLTNTSSEFGVQYDSLADLVSFGMAPALVMYHWSLSALKYDSSVMGRVGWSAAFLYAACAALRLARFNTQVGVVDKRWFIGLASPAAAGLMMSFVWAFADDSLGFDGEQLRYVALAVTVVSALLMVSRIRFWSFKGGARGPRADRVPFLALAIATVVIALLVIDLARSLLVIGVLYALSGPLMWLWRRWRRVPELP”, the protein production entry is listed as “failed”. Turning to “MSTPDGDEKEQCFHRAIAKTSIYLDREPGNPELTVWLAINKASLAGAQGGFGALSLAKEAKSLLEGVIATSPQTLDGSAYTSLGSLYYKVPGWPIGFGDDDKAEEMLKKALEINPKGIDPNYFYGDFLAEEGRDKEAKVYLTRAMQASPRPLEHHHHHH”, the protein production entry is given as “failed”. The same measure for “MNNSAFTFQTLHPDTIMDALFEHGIRVDSGLTPLNSYENRVYQFQDEDRRRFVVKFYRPERWTADQILEEHQFALQLVNDEVPVAAPVAFNGQTLLNHQGFYFAVFPSVGGRQFEADNIDQMEAVGRYLGRMHQTGRKQLFIHRPTIGLNEYLIEPRKLFEDATLIPSGLKAAFLKATDELIAAVTAHWREDFTVLRLHGDCHAGNILWRDGPMFVDLDDARNGPAVQDLWMLLNGDKAEQRMQLETIIEAYEEFSEFDTAEIGLIEPLRAMRLVYYLAWLMRRWADPAFPKNFPWLTGEDYWLRQTATFIEQAKVLQEPPLQLTPMY”: “not failed”; for “MEVAVEKAVAAAAAASAAASGGPSAAPSGENEAESRQGPDSERGGEAARLNLLDTCAVCHQNIQSRAPKLLPCLHSFCQRCLPAPQRYLMLPAPMLGSAETPPPVPAPGSPVSGSSPFATQVGVIRCPVCSQECAERHIIDNFFVKDTTEVPSSTVEKSNQVCTSCEDNAEANGFCVECVEWLCKTCIRAHQRVKFTKDHTVRQKEEVSPEAVGVTSQRPVFCPFHKKEQLKLYCETCDKLTCRDCQLLEHKEHRYQFIEEAFQNQKVIIDTLITKLMEKTKYIKFTGNQIQNRIIEVNQNQKQVEQDIKVAIFTLMVEINKKGKALLHQLESLAKDHRMKLMQQQQEVAGLSKQLEHVMHFSKWAVSSGSSTALLYSKRLITYRLRHLLRARCDASPVTNNTIQFHCDPSFWAQNIINLGSLVIEDKESQPQMPKQNPVVEQNSQPPSGLSSNQLSKFPTQISLAQLRLQHMQQQVMAQRQQVQRRPAPVGLPNPRMQGPIQQPSISHQQPPPRLINFQNHSPKPNGPVLPPHPQQLRYPPNQNIPRQAIKPNPLQMAFLAQQAIKQWQISSGQGTPSTTNSTSSTPSSPTITSAAGYDGKAFGSPMIDLSSPVGGSYNLPSLPDIDCSSTIMLDNIVRKDTNIDHGQPRPPSNRTVQSPNSSVPSPGLAGPVTMTSVHPPIRSPSASSVGSRGSSGSSSKPAGADSTHKVPVVMLEPIRIKQENSGPPENYDFPVVIVKQESDEESRPQNANYPRSILTSLLLNSSQSSTSEETVLRSDAPDSTGDQPGLHQDNSSNGKSEWLDPSQKSPLHVGETRKEDDPNEDWCAVCQNGGELLCCEKCPKVFHLSCHVPTLTNFPSGEWICTFCRDLSKPEVEYDCDAPSHNSEKKKTEGLVKLTPIDKRKCERLLLFLYCHEMSLAFQDPVPLTVPDYYKIIKNPMDLSTIKKRLQEDYSMYSKPEDFVADFRLIFQNCAEFNEPDSEVANAGIKLENYFEELLKNLYPEKRFPKPEFRNESEDNKFSDDSDDDFVQPRKKRLKSIEERQLLK”: “not failed”. For “MLPIASGNDDRNLIRYVDGGRFDEIMLTGDLTGLSSFLTNAGPNARDDFDLTVLMRAAEAGNLMVVARLLDLGANPRLTNPRGVTALHIAAIAGDDGIVECLIDAGAEVDAVDDQGRTPLWNAAAHHLPDSAVVDVLLRAGANVNLRDCNGVSPEDML” the value was “failed”. Turning to “MSDHFSIIKFDIGNSTMNAERKFLFACLIFALAIYAIHAFGLFDLLTDLPHLQTLIRQSGLFGYSLYILLFIIATLFLLPGSILVIAGGIVFGPFLGTLLSLIAATLASSCSFLLARWMGRDLLLKYVGHSHTFQAIEKGIARNGIDFLILTRLIPLFPYNIQNYAYGLTTIAFWPYTLISALTTLPGIVIYTVMASDLANEGITLRFILQLCLAGLALFILVQLAKLYARHKHVDLSASRRNPLTHPKNEG”, the protein production result is listed as “failed”. The same measure for “MIHRRCVGGRRNHGGRVAQGSSRSRLPQQGTPVTMSSTSSTPPWNVQRLPGADGRVFLVTGGNAGIGYFVAEQLSATGATVVLGSRNPAKAEAATASIRARVPGSRVRAVRLDLADLSSLETAVESLEVERLDAVVHNAGVALDDPPREETGDGHELMFGTNHLGHFALTQWLMPLLSAAPAARVVTMGSFAAKSERLDLDDLQSRKDYQPKRTYGRSKLAQMYFGVELDRRLRAAGSTVASVVVHPGGALDSLTPSRPPVHVRSTGARLSAAPAALLLQGKHAGAWPAVRAVLDPAVRGGQLWGPRVFGLRGEPRREPVWDHLADPSVAARLWDASCDLMGTDLSTISG”: “failed”; for “MSTALATLAGKLAERVGMDSVDPQELITTLRQTAFKGDASDAQFIALLIVANQYGLNPWTKEIYAFPDKQNGIVPVVGVDGWSRIINENQQFDGMDFEQDNESCTCRIYRKDRNHPICVTEWMDECRREPFKTREGREITGPWQSHPKRMLRHKAMIQCARLAFGFAGIYDKDEAERIVENTAYTAERQPERDITPVNDETMQEINTLLIALDKTWDDDLLPLCSQIFRRDIRASSELTQAEAVKALGFLKQKATEQKVAA”: “failed”. As to “MTTFNYTNILTQAVDELSESQSYKGLFHQHKDGDPLPSAKSLYKIVELARAIIFPGYFGNSTVNSHTINYHIGVNVETLFGLLTEQILAGLCFGQENSKNATDDNEPCRETASLLAARFISKLPELRRILATDVEAAYYGDPAATCFGEIISCYPAIRAISNYRIAHELLILGVPLIPRFITEMAHSETGIDIHPGAQIGHHFTIDHGTGVVIGATSIIGNNVKLYQGVTLGAKSFPLDNNGNPIKGIPRHPILEDDVIVYSNATILGRVTIGKGATVGGNIWVTENVPAGSRIVQRKNKDELEHHHHHH”, the protein production entry is given as “not failed”. For “MPLVSVVMPVYNSAATLGAAVRSVLTQTHGDLELLVTDDQSSDGSMDLLREFAAQDERVLPRSSPERGGAGRARNLAIERARGDYVAFLDSDDMWLPEKTEKQLAFAAEGTAPLTFTSYFKMDADHDGESTDWVPNGRVIRAREHVDYRAMLVQDHIGALTAMYDRNVLGTRLMPEMRKRQDYALWLSIMRDGADARGLAEPLAVYRAHQAGSLSSNKLSLVEYNWALYREHENLSVPRATRALAGAVWQSLRNSRILEHHHHHH” the value was “failed”; for “DPEEIMQVAVEKLGQGLGICRCVIYRCSADDTVATINHEFLGSGVGSIKGYPWPLKDNPLFQEVVVLKEAIAIDNIDRDPRLGEPEPSTGEVKTLVKSCAILSWMLVPIFYRERLLGMMEFHHCGPAPTEWEDDALTLVEGVATQIGVALIQAESYANLQELNEQLAALDRTRSNLVAITGHELRTP”, “failed”.
